Measurements as given in publication PMC5731645 (Neuron, 2017).
Like-named read-outs stand apart in the source and are kept apart here. Each block holds one binder with its values, some of them ahead of it.

B2: DISC1 765–835 (domain or fragment, mouse, UniProt Q811T9-1 765-835, looked up)
chain: GPWKEDSHIVSAEVGEKCEAIGVKLLHLEDQLLGAMYSHDEALFQSLQGELQTVKETLQAMILQLQPTKEA
B3: DISC1 322–852 (domain or fragment, mouse, UniProt Q811T9-1 322-852, looked up)
chain: ADAHGWHTLLREWEPMLQDYLLSNRRQLEVTSLILKLQKCQEKVVEDGDYDTAETLRQRLEELEQEKGRLSWALPSQQPALRSFLGYLAAQIQVALHGATQRAGSDDPEAPLEGQLRTTAQDSLPASITRRDWLIREKQRLQKEIEALQARMSALEAKEKRLSQELEEQEVLLRWPGCDLMALVAQMSPGQLQEVSKALGETLTSANQAPFQVEPPETLRSLRERTKSLNLAVRELTAQVCSGEKLCSSLRRRLSDLDTRLPALLEAKMLALSGSCFSTAKELTEEIWALSSEREGLEMFLGRLLALSSRNSRRLGIVKEDHLRCRQDLALQDAAHKTRMKANTVKCMEVLEGQLSSCRCPLLGRVWKADLETCQLLMQSLQLQEAGSSPHAEDEEQVHSTGEAAQTAALAVPRTPHPEEEKSPLQVLQEWDTHSALSPHCAAGPWKEDSHIVSAEVGEKCEAIGVKLLHLEDQLLGAMYSHDEALFQSLQGELQTVKETLQAMILQLQPTKEAGEASASYPTAGAQETEA
B4: full-length Nde1 (natural protein, human, UniProt Q9NXR1-2 1-335, looked up)
chain: MEDSGKTFSSEEEEANYWKDLAMTYKQRAENTQEELREFQEGSREYEAELETQLQQIETRNRDLLSENNRLRMELETIKEKFEVQHSEGYRQISALEDDLAQTKAIKDQLQKYIRELEQANDDLERAKRATIMSLEDFEQRLNQAIERNAFLESELDEKENLLESVQRLKDEARDLRQELAVQQKQEKPRTPMPSSVEAERTDTAVQATGSVPSTPIAHRGPSSSLNTPGSFRRGLDDSTGGTPLTPAARISALNIVGDLLRKVGALESKLASCRNLVYDQSPNRTGGPASGRSSKNRDGGERRPSSTSVPLGDKGLDTSCRWLSKSTTRSSSSC

What was measured:
DISC1 765–852 = target: T1, DISC1 765–852 (mouse, UniProt Q811T9-1 765-852); assay: NMR structure
T1 sequence (looked up): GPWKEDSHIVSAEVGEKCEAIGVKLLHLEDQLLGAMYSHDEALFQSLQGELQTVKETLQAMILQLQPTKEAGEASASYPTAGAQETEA

DISC1 765–835 = target: B2; assay: ITC
SEC-MALS [1] = target: the molecule itself; assay: SEC-MALS
full-length Nde1 = target: B4; assay: ITC
trx-Ndel1 CT-CC = target: T2, trx-Ndel1 CT-CC (mouse, UniProt Q9ERR1-1 238-284); assay: SEC-MALS
T2 chain (looked up): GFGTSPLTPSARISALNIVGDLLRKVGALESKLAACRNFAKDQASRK

SEC-MALS [2] = target: the molecule itself; assay: SEC-MALS; remark: listed apart in the source
DISC1 322–852 = target: B3; assay: ITC

binding result (DISC1 765–852): binds
binding result (DISC1 765–835): binds
Binder: GFGTSPLTPSARISALNIVGDLLRKVGALESKLAACRNFAKDQASRK (domain or fragment, mouse, UniProt Q9ERR1-1 238-284, looked up) [Ndel1 CT-CC]

B1: Ndel1 with the C-terminal half (aa 194–345) truncated (domain or fragment, mouse, UniProt Q9ERR1-1 1-193, looked up)
chain: MDGEDIPDFSSLKEETAYWKELSLKYKQSFQEARDELVEFQEGSRELEAELEAQLVQAEQRNRDLQADNQRLKYEVEALKEKLEHQYAQSYKQVSVLEDDLSQTRAIKEQLHKYVRELEQANDDLERAKRATIVSLEDFEQRLNQAIERNAFLESELDEKESLLVSVQRLKDEARDLRQELAVRERQQEVTRK
stoichiometry N (SEC-MALS [1]): 2

Binder: B2
binding result (full-length Nde1): binds
stoichiometry N (trx-Ndel1 CT-CC): 1
stoichiometry N (SEC-MALS [2]): 2

binding result (DISC1 765–835): binds
Binder: STGGTPLTPAARISALNIVGDLLRKVGALESKLASCRNLVYDQSPNRT (domain or fragment, human, UniProt Q9NXR1-2 239-286, looked up) [Nde1 CT-CC]

Binder: B3
stoichiometry N (full-length Nde1): 1

Binder: B4
Kd (DISC1 322–852): ~0.04 µM

B5: full-length Ndel1 (natural protein, mouse, UniProt Q9ERR1-1 1-345, looked up)
chain: MDGEDIPDFSSLKEETAYWKELSLKYKQSFQEARDELVEFQEGSRELEAELEAQLVQAEQRNRDLQADNQRLKYEVEALKEKLEHQYAQSYKQVSVLEDDLSQTRAIKEQLHKYVRELEQANDDLERAKRATIVSLEDFEQRLNQAIERNAFLESELDEKESLLVSVQRLKDEARDLRQELAVRERQQEVTRKSAPSSPTLDCEKMDSAVQASLSLPATPVGKGTENSFPSPKAIPNGFGTSPLTPSARISALNIVGDLLRKVGALESKLAACRNFAKDQASRKSYVPGSVNCGVMNSNGPECPRSGRATFFHKGAVNGFDPAPPPPGLGSSRPSSAPGMLPLSV
stoichiometry N (SEC-MALS [1]): 2
